One assay has as its target T1, human CD3ed-Fc (human).
T1 construct: Biotinylated in culture with BirA; The heterodimer fraction was purified; also called biotin-labeled protein containing human CD3 epsilon and human CD3 delta linked to a human antibody constant region; CD3 epsilon-delta heterodimer fused with the antibody constant region
T1 chain 1: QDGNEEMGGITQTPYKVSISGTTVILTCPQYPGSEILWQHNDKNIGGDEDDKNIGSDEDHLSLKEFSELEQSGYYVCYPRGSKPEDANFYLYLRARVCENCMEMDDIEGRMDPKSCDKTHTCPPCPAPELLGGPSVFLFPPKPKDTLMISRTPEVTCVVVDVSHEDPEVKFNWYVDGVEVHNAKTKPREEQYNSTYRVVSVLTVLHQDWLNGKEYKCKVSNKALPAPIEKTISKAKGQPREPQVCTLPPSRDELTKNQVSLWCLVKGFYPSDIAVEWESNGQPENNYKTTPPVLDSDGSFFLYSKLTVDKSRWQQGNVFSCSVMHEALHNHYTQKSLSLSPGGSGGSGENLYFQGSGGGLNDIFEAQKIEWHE
T1 chain 2: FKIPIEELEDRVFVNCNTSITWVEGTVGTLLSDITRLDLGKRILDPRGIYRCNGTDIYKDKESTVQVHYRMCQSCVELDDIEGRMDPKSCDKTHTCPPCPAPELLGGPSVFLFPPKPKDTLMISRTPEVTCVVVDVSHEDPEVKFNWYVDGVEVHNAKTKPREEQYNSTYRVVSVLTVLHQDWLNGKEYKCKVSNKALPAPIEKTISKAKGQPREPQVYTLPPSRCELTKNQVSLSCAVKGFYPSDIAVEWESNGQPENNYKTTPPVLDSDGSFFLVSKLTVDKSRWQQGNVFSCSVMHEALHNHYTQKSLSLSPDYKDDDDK
Kind of assay: phage display: panning on biotin-labeled human CD3ed-Fc and/or phage ELISA. In general terms: In an ELISA, binding on a coated surface is turned into a signal by an enzyme label.

The target of assay [1] is T2, IL6R90-G1m/lamL (Homo sapiens (Human), UniProt P0DOY2 1-106).
T2 construct: IgG antibody-like molecule lacking VL
Kind of assay: BLI (Octet HTX), hsIL-6R-BAP1 on streptavidin sensor, molecule as analyte, 30 C. For orientation: In BLI a coated tip is dipped into the sample, and binding shifts an interference pattern.

Assay [2] concerns the target T2, IL6R90-G1m/lamL. In words: BLI (Octet HTX), molecule captured on Protein A biosensor, hsIL-6R as analyte, 30 C. On the procedure:
(§1) The hsIL-6R binding evaluation of each molecule was conducted using Octet HTX (Pall ForteBio Corp.). Specifically, each molecule was bound to Biosensor/Protein A (ProA) (Pall ForteBio Corp., 18-5013), and hsIL-6R was allowed to act thereon, followed by binding evaluation at 30° C.

For another assay, the target named is T3, IL6R90-G1m/VK2-28-k0MT.
T3 construct: IgG antibody-like molecule
Described as above. On the procedure:
as §1

Another assay has as its target T4, 20A11-G1m/VK2-28-k0MT.
T4 construct: IgG antibody-like molecule
In words: BLI (Octet), in the same way as in Example 3.

A further assay deals with T5, 20A11hu-G1m/VK2-28-k0MT (Homo sapiens (Human), UniProt P0DOX5 2-447 = IgG part).
T5 construct: IgG antibody-like molecule
Kind of assay: BLI (Octet), in the same way as in Example 3, 30 C or 25 C.

T5 sequence (P0DOX5 other isoform, or with tags, fused parts or gaps, chain 1 of 2): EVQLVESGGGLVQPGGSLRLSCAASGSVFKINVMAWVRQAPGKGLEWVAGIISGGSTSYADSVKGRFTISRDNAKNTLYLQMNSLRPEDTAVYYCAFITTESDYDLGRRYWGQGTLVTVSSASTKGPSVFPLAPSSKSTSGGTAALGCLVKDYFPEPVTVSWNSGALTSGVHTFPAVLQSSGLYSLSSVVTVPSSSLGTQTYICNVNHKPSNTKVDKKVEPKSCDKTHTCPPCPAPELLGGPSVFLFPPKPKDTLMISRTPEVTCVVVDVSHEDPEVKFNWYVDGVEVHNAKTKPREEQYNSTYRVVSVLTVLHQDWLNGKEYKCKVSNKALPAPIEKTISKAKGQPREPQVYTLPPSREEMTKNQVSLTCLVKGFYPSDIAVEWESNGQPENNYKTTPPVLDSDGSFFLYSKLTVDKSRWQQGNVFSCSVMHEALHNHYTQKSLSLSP
T5 sequence (light, as listed by the source, chain 2 of 2): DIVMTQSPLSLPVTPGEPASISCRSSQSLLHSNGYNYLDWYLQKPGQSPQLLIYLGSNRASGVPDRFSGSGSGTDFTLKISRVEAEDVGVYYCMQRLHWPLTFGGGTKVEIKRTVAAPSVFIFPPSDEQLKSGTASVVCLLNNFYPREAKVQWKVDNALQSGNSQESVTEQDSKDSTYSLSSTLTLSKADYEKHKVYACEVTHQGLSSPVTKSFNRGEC
T3 sequence (light, as listed by the source, chain 2 of 2, other chains not shown): as the sequence (light, as listed by the source, chain 2 of 2) above
T4 sequence (heavy, as listed by the source, chain 1 of 2): as the sequence (P0DOX5 other isoform, or with tags, fused parts or gaps, chain 1 of 2) above, with V37Y, L45R, W47L counted along it
T4 sequence (light, as listed by the source, chain 2 of 2): as the sequence (light, as listed by the source, chain 2 of 2) above
Experimental for human CD3ed-Fc: Next, BSA was added to the phage library solution so as to attain a final BSA concentration of 4%. […] The magnetic beads used were NeutrAvidin coated beads (FG beads NeutrAvidin) or Streptavidin coated beads (Dynabeads MyOne Streptavidin T1).
Specifically, 100 pmol of the biotin-labeled antigen was added to the prepared phage library solution, and the phage library solution was contacted with the antigen at room temperature for 60 minutes. The magnetic beads blocked with BSA were added thereto, and the complexes of the antigen and the phages were bound to the magnetic beads at room temperature for 15 minutes. The beads were washed twice with 0.5 mL of TBST (TBS containing 0.1% Tween 20; TBS was manufactured by Takara Bio Inc.) and then further washed once with 0.5 mL of TBS. Then, 0.5 mL of 1 mg/mL trypsin was added thereto, and the beads were suspended at room temperature for 15 minutes and immediately thereafter, separated using a magnetic stand to recover a phage solution. The recovered phage solution was added to 20 mL of an E. coli line ER2738 in an exponential stage of growth (OD600: 0.4-0.5). The E. coli was cultured with mild stirring at 37° C. for 1 hour and thereby infected by the phages. […] Next, the phages were recovered from the culture solution of the inoculated E. coli to prepare a phage library solution. This cycle, called panning, was repeated twice. In the second cycle of panning, the beads were washed three times with TBST and subsequently twice with TBS. Also, 4 nmol of human Fc was added in the case of the panning against the human CD3ed-Fc.

B1: bC3edL1R1N160H01 (VHH)
VHH: QVQLVESGGGLVQPGGSLRLSCAASGFTFNHCWMYWVRQAPGKGLEWVSVINTDGGSAYYADSVKGRFTISRDNAKNTLYLQMNSLKSEDTAVYYCARDWAPLVDYYYGMDYWGKGTLVTVSG
In the case of B1, the binding result in the assay with human CD3ed-Fc is given as “binds”.

B2: bC3edL1R1N161H01 (VHH)
VHH: QVQLVESGGGLVQPGGSLRLSCAASGFPFDNYVMSWVRQAPGKGLEWISAISWNGGSTYYAESMKGRFTISRDNAKSTLYLQMNSLKSEDTAVYYCAKEPRVYYSGSPDYWGQGTQVTVSG
With B2, the binding result with human CD3ed-Fc is “binds”.

B3: hsIL-6R-BAP1 (receptor)
chain: LAPRRCPAQEVARGVLTSLPGDSVTLTCPGVEPEDNATVHWVLRKPAAGSHPSRWAGMGRRLLLRSVQLHDSGNYSCYRAGRPAGTVHLLVDVPPEEPQLSCFRKSPLSNVVCEWGPRSTPSLTTKAVLLVRKFQNSPAEDFQEPCQYSQESQKFSCQLAVPEGDSSFYIVSMCVASSVGSKFSKTQTFQGCGILQPDPPANITVTAVARNPRWLSVTWQDPHSWNSSFYRLRFELRYRAERSKTFTTWMVKDLQHHCVIHDAWSGLRHVVQLRAQEEFGQGEWSEWSPEAMGTPWTESRSPPAENEVSTPMQALTTNKDDDNILFRDSANATSLPVQGGGGSGLNDIFEAQKIEWHE
modifications: biotin on the C-terminal AviTag sequence (BirA)
notes: also called hsIL-6R-Avitag; biotinylated soluble human IL6R
Consider B3, for which, in the assay with IL6R90-G1m/lamL [1], the binding result was “binds”.

B4: soluble human IL-6R (receptor)
chain: LAPRRCPAQEVARGVLTSLPGDSVTLTCPGVEPEDNATVHWVLRKPAAGSHPSRWAGMGRRLLLRSVQLHDSGNYSCYRAGRPAGTVHLLVDVPPEEPQLSCFRKSPLSNVVCEWGPRSTPSLTTKAVLLVRKFQNSPAEDFQEPCQYSQESQKFSCQLAVPEGDSSFYIVSMCVASSVGSKFSKTQTFQGCGILQPDPPANITVTAVARNPRWLSVTWQDPHSWNSSFYRLRFELRYRAERSKTFTTWMVKDLQHHCVIHDAWSGLRHVVQLRAQEEFGQGEWSEWSPEAMGTPWTESRSPPAENEVSTPMQALTTNKDDDNILFRDSANATSLPVQ
notes: Expressed in CHO cells and purified from the supernatant; also called hsIL-6R; recombinant human IL6R
As for B4, the binding result with IL6R90-G1m/lamL [2] is listed as “binds”; in the assay with IL6R90-G1m/VK2-28-k0MT, “no binding”; with 20A11-G1m/VK2-28-k0MT, “binds”; with 20A11hu-G1m/VK2-28-k0MT it was “no binding”.

B5: bC3edL1R1N164H01 (VHH)
VHH: QVQLVESGGGLVQPGGSLRLSCAASGFTFDVYGMSWVRHSPGKGLEWVSTINWNGGSTYYAESMKGRFTISRDNAKNTVYLQMNSLKPEDTAVYYCAKFAPWDGDMEWGQGTQVTVSG
On to B5, for which the binding result with human CD3ed-Fc is recorded as “binds”.

For the origin of these results see US20240150476A1 (Chugai, published 2024).
